Measurements published in patent US20080125498A1 (published 2008).

Biological target: T1, protease-activated receptor 1 (PAR1), rat, endogenous in hippocampal neurons (rat, UniProt P26824 46-432)
T1 sequence (looked up): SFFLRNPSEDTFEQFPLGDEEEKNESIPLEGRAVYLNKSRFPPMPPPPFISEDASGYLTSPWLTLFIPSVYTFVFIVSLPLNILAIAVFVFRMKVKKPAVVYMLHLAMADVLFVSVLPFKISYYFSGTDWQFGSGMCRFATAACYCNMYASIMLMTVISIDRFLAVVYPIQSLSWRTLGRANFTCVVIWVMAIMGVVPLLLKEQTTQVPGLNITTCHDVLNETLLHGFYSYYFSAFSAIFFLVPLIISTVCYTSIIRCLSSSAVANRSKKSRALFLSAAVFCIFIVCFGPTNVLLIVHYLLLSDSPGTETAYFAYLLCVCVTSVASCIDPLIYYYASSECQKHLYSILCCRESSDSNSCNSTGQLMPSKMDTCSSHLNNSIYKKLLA
Experiment: cell-based or functional assay

Q: For SFLLRN, which “potentiation of the response to NMDA plus glycine in CA1 pyramidal cells, 30 micromolar SFLLRN” value is on record?
A: Its value is 1.76 fold.
